This is an account of results in publication PMC8597880.

This assay concerns the target recombinant SARS-CoV-2 RBD, Prototype (SARS-CoV-2, prototype) (UniProt P0DTC2). Briefly: BLI. In general terms: In BLI a coated tip is dipped into the sample, and binding shifts an interference pattern.

In general, Kd refers to the constant that tells how readily two partners part at equilibrium. The koff is a measure of how fast the partners let go of each other. For the substance NIH-CoVnb-112 (VHH), the Kd amounted to 1.59 nM and the koff amounted to 0.000236 s⁻¹.
